Measurements taken from the supplement of paper PMC10567573.
± gives the standard deviation.

Assay: protein stability index of a GFP-peptide fusion (GPS, HEK-293T) (PSI 1-6); higher = more stable
[1] = treatment: DMSO, c terminus: a fixed tail appended
[2] = treatment: MLN4924 1 uM, 8 h, c terminus: a fixed tail appended
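Note: 24-mer peptide tiles fused after GFP, lentivirally expressed, FACS-sorted into six equal bins by GFP/DsRed ratio, decoded by Illumina sequencing, PSI is the read-weighted mean bin number.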

Sequence	protein stability index [1]	protein stability index [2]	protein stability index (treatment: DMSO, c terminus: native)	protein stability index (treatment: MLN4924 1 uM, 8 h, c terminus: native)
HTGEKPYTCHECGDSFSHSSNRIR [ZNF263]	2.67 ± 0.2	3.4 ± 0.48		
EFGALMSNYSLPPPLPTYHVLLEG [TRIM29]	2.7 ± 0.98	2.15 ± 0.33		
IKSEDMLKILKPSIPLERIHFDSY [FBXO33]	2.43 ± 0.23	2.36 ± 0.29		
AMEYAPGGTLAEFIQKRCNSLLEE [NEK8]	3.56 ± 0.36	3.3 ± 0.29		
AQLQDFVRAKGSQSGRHLQTHSNT [STX5]	4.13 ± 0.08	4.24 ± 0.15		
GDVMHLSQSPSVSQLSVLSLSGVM [PRAME]	2.43 ± 0.42	2.28 ± 0.31		
AFPQTPFKTGNSTATCTTNNNPNS [KCNA3]	4.61 ± 0.4	4.62 ± 0.17		
AVWGQCQVRIRYLGERRAEPHSLL [SPSB2]	2.26 ± 0.23	2.19 ± 0.28		
KCVVHIHTPAGAAVSAMKCGLLPI [ADD1]	2.69 ± 0.52	2.17 ± 0.56		
MVRKIGCYAAMKKKIYAMGGGSYG [GAN]	2.28 ± 0.17	2.45 ± 0.38		
GVNYPKPMVNHAEASRLNIERMKQ [CRY1]	4.2 ± 0.3	4.11 ± 0.62		
RDEHRARAMKIPFTNDKIINLPVE [NFE2L1]	4.12 ± 0.36	3.95 ± 0.14		
FSAEFLKVFIPSLFLSHVLALGLG [BNIP3L]	3.57 ± 0.21	2.9 ± 0.93		
TRLSRLQEKEELRELNDRLAVYID [LMNB1]	3.42 ± 0.25	3.5 ± 0.28		
KRLYDKAAKMYHQLKKCETRKLSP [SMG5]	2.28 ± 0.18	2.38 ± 0.39		
EQGAIPRLVQLLVRAHQDTQRRTS [CTNNB1]	3.18 ± 0.19	3.26 ± 0.22		
CMDQERLRRESTSQKEMDKAETKT [FCHO1]	5.15 ± 0.65	5.21 ± 0.14		
AQPNTMLGRMFGSGREHNFTRPNE [BTBD10]	3.74 ± 0.53	3.61 ± 0.39		
YMYYFQYLSKTYCVDATRETNRLG [KMT5A]	2.67 ± 0.47	2.81 ± 0.66		
AVSVMKKCRKLEDPQSSSQVTTS [SLC19A2]			4.36 ± 0.23	4.37 ± 0.19
IEERKQGLEQFINKVAGHPLAQNE [SNX3]	4.54 ± 0.13	4.31 ± 0.47		
CPWEPQKQPPWEFLQVLEPGARGL [SPAG8]	3.11 ± 0.24	3.36 ± 0.11		
TINPLWHIRHLGWNPDARYSEHFL [GLT8D2]	2.39 ± 0.22	2.32 ± 0.24		

Sequence	protein stability index [1]	protein stability index [2]	protein stability index (treatment: DMSO, c terminus: native)	protein stability index (treatment: MLN4924 1 uM, 8 h, c terminus: native)
TVPDEFTVEERQTGMWWRHLVAGG [SLC25A25]	2.77 ± 0.19	3 ± 0.14		
EVENQFILRLPLEHACTVRNLARS [TAF7L]	2.66 ± 0.12	2.51 ± 0.24		
SYLREQMLNEPLVREIVKECSNIP [GAN]	3.21 ± 0.19	3.39 ± 0.45		
SPALQVMGPAQEAPVAEAWIPQAG [ZNF449]	4.6 ± 0.086	4.65 ± 0.27		
IFRSYSRGAQGVILVYDIANRWSF [RAB40A]	2.53 ± 0.36	2.36 ± 0.35		
LASARIIEQDAVVPSEWLSSVYKQ [GMCL1]	3.31 ± 0.17	3.19 ± 0.24		
LLEATCPFGENAEFPADISSITEA [NFE2L1]	4.48 ± 0.28	4.65 ± 0.17		
GEEDFSLSATIGSILRELDTSMDG [SERTAD3]	3.75 ± 0.2	3.93 ± 0.44		
KCEHCRVLFLDHVMYTIHMGCHGF [IKZF1]	2.24 ± 0.38	2.49 ± 0.63		
ELLTDKSCQSFISWTGDGWEFKLS [ETS1]	2.24 ± 0.28	2.55 ± 0.37		
VVLCEGVKWLSFHSGYDFGYLIKI [CNOT7]	2.87 ± 0.36	3.09 ± 1.2		
PRLFKEWNITKLSIEYDSEPFGKE [CRY1]	3.06 ± 0.33	3.46 ± 0.39		
REAKEGDCGDILRLIRELAEFEKL [SAT2]	2.95 ± 0.3	3.09 ± 0.47		
VAVLLLFLVVREPPRGAVERHSDL [SPNS1]	3.02 ± 0.64	2.99 ± 0.53		
LLDEIVPVYRRDCHEEVYAGSHQY [ACBD3]	3.03 ± 0.13	3.13 ± 0.26		
HLDPGFLASDKTSAGNAPLNEEIN [C18orf25]	4.75 ± 0.29	4.97 ± 0.33		
GYNWCHDRNVVTIFSAPNYCYRCG [PPP2CA]	2.4 ± 0.41	2.27 ± 0.46		
WEIAKAEVEKRGINGSEGDGAEIA [DYNC2LI1]	5.26 ± 0.22	5.18 ± 0.27		
LPFLAHALYVQAPTVTIEGFLQAL [TRIP13]	2.93 ± 0.66	2.76 ± 0.51		
ELERCRQQAGLLVTGEKEEPSRSA [PPEF2]	4.95 ± 0.27	5.11 ± 0.86		
HRTVKLVPWSQCLQNFLLHGTKNV [WSB1]	2.19 ± 0.17	1.99 ± 0.21		
IVDQVLEEDFDSEQLSVLASCLQE [INTS3]	4.16 ± 0.16	4.23 ± 0.3		
